Laboratory results as given in IntAct's records for PubMed 35512704.

B1: Mothers against decapentaplegic homolog 4 (Homo sapiens), Q13485 (parent)
chain: MDNMSITNTPTSNDACLSIVHSLMCHRQGGESETFAKRAIESLVKKLKEKKDELDSLITAITTNGAHPSKCVTIQRTLDGRLQVAGRKGFPHVIYARLWRWPDLHKNELKHVKYCQYAFDLKCDSVCVNPYHYERVVSPGIDLSGLTLQSNAPSSMMVKDEYVHDFEGQPSLSTEGHSIQTIQHPPSNRASTETYSTPALLAPSESNATSTANFPNIPVASTSQPASILGGSHSEGLLQIASGPQPGQQQNGFTGQPATYHHNSTTTWTGSRTAPYTPNLPHHQNGHLQHHPPMPPHPGHYWPVHNELAFQPPISNHPAPEYWCSIAYFEMDVQVGETFKVPSSCPIVTVDGYVDPSGGDRFCLGQLSNVHRTEAIERARLHIGKGVQLECKGEGDVWVRCLSDHAVFVQSYYLDREAGRAPGDAVHKIYPSAYIKVFDLRQCHRQMQQQAATAQAAAAAQAAAVAGNIPGPGSVGGIAPAISLSAAAGIGVDDLRRLCILRMSFVKGWGPDYPRQSIKETPCWIEIHLHRALQLLDEVLHTMPIADPQPLD

Variants of: B1
Conditions: with smad3_human SMAD3, P84022

Variant | effect of a mutation on the interaction
G386D | disrupting interaction strength

Variants of: B1
Conditions: with smad1_human SMAD1, Q15797

Variant | effect of a mutation on the interaction
G386D | disrupting interaction strength

Variants of: B1
Conditions: with axin2_human AXIN2, Q9Y2T1
Chain of axin2_human AXIN2, Q9Y2T1 (Q9Y2T1 whole entry): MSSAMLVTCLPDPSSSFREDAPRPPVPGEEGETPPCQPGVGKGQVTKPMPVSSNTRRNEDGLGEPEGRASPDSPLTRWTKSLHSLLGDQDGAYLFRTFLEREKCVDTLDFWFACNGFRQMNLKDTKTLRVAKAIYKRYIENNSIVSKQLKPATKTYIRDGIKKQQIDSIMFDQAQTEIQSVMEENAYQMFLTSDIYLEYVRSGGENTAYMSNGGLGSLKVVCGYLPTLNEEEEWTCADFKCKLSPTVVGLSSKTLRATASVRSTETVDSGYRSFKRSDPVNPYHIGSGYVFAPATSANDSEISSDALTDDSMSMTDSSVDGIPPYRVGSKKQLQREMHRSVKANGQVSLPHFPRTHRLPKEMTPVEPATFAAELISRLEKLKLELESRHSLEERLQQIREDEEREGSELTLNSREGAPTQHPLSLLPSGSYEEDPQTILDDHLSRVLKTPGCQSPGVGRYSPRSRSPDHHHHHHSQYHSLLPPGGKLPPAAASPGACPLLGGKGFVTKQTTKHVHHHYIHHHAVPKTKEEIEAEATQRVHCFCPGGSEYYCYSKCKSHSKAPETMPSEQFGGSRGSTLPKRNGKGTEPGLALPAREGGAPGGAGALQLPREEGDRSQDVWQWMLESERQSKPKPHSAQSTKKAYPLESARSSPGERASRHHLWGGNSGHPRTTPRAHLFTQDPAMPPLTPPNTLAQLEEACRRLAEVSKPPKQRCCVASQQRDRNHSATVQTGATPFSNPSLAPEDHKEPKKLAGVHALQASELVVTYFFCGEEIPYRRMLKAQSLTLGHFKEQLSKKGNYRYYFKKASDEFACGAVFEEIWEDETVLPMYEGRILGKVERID

Variant | effect of a mutation on the interaction
G386D | causing an interaction

Variants of: B1
Conditions: with gsk3b_human GSK3B

Variant | effect of a mutation on the interaction
G386D | causing an interaction

Variants of: B1
Conditions: with agap2_human AGAP2, Q99490

Variant | effect of a mutation on the interaction
G386D | with no effect

Variants of: B1
Conditions: with ajuba_human AJUBA

Variant | effect of a mutation on the interaction
G386D | with no effect

Variants of: B1
Conditions: with akt1_human AKT1, P31749
Chain of akt1_human AKT1, P31749 (P31749 whole entry): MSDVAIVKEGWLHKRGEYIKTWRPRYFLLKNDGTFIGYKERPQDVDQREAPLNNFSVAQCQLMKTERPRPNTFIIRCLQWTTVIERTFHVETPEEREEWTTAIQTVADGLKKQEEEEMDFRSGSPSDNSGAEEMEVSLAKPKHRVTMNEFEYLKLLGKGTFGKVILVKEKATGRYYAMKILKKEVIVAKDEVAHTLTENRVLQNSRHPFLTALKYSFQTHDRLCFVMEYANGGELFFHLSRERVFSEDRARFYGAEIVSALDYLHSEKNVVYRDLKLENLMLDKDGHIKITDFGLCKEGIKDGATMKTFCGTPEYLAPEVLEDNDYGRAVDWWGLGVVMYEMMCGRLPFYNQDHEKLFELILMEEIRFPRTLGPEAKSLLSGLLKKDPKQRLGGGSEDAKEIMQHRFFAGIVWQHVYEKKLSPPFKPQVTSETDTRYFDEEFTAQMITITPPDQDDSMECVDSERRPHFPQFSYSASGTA

Variant | effect of a mutation on the interaction
G386D | with no effect

Variants of: B1
Conditions: with akts1_human AKT1S1, Q96B36

Variant | effect of a mutation on the interaction
G386D | with no effect

Variants of: B1
Conditions: with alk_human ALK

Variant | effect of a mutation on the interaction
G386D | with no effect

Variants of: B1
Conditions: with aph1a_human APH1A

Variant | effect of a mutation on the interaction
G386D | with no effect

Variants of: B1
Conditions: with arnt_human ARNT

Variant | effect of a mutation on the interaction
G386D | with no effect

Variants of: B1
Conditions: with bakor_human ATG14, Q6ZNE5

Variant | effect of a mutation on the interaction
G386D | with no effect

Variants of: B1
Conditions: with atpb_human ATP5F1B

Variant | effect of a mutation on the interaction
G386D | with no effect

Variants of: B1
Conditions: with aurkb_human AURKB

Variant | effect of a mutation on the interaction
G386D | with no effect

Variants of: B1
Conditions: with axin2_human AXIN2, Q9Y2T1
Remark: another data set of the same source

Variant | effect of a mutation on the interaction
G386D | with no effect

Variants of: B1
Conditions: with ufo_human AXL

Variant | effect of a mutation on the interaction
G386D | with no effect

Variants of: B1
Conditions: with za2g_human AZGP1, P25311

Variant | effect of a mutation on the interaction
G386D | with no effect

Variants of: B1
Conditions: with b2mg_human B2M

Variant | effect of a mutation on the interaction
G386D | with no effect

Variants of: B1
Conditions: with bap1_human BAP1, Q92560

Variant | effect of a mutation on the interaction
G386D | with no effect

Variants of: B1
Conditions: with becn1_human BECN1, Q14457
Chain of becn1_human BECN1, Q14457 (Q14457 whole entry): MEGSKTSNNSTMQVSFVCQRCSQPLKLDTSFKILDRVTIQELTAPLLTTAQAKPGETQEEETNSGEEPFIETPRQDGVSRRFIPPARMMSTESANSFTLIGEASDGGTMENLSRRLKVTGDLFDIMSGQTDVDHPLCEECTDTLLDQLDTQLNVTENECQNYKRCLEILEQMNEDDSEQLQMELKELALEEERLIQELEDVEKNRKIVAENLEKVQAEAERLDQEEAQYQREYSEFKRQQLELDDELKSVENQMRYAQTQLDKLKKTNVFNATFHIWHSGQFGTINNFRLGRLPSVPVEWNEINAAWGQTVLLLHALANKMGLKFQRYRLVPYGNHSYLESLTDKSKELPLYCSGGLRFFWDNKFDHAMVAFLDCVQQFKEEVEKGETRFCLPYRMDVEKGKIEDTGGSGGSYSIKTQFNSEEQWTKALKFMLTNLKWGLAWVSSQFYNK

Variant | effect of a mutation on the interaction
G386D | with no effect

Variants of: B1
Conditions: with birc2_human BIRC2, Q13490
Chain of birc2_human BIRC2, Q13490 (Q13490 whole entry): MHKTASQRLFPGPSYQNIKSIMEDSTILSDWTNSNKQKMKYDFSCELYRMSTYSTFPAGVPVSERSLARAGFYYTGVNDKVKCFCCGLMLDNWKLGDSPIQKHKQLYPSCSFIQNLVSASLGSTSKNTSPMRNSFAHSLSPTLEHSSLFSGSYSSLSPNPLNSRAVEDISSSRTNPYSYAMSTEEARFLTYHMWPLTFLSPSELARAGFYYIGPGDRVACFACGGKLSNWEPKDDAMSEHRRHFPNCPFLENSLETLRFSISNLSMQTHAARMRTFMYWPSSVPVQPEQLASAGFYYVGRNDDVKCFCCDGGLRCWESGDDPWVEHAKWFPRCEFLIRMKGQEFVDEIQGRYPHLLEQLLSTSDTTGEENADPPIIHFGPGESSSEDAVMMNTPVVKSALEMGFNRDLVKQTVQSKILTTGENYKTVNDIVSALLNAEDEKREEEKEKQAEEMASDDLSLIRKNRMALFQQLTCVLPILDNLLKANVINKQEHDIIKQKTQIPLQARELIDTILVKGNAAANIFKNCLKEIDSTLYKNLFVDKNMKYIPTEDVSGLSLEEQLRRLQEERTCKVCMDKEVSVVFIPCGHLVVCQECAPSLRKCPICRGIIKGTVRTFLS

Variant | effect of a mutation on the interaction
G386D | with no effect

Variants of: B1
Conditions: with braf_human BRAF

Variant | effect of a mutation on the interaction
G386D | with no effect

Variants of: B1
Conditions: with baba2_human BABAM2, Q9NXR7

Variant | effect of a mutation on the interaction
G386D | with no effect

Variants of: B1
Conditions: with btg1_human BTG1, P62324

Variant | effect of a mutation on the interaction
G386D | with no effect

Variants of: B1
Conditions: with btk_human BTK

Variant | effect of a mutation on the interaction
G386D | with no effect

Variants of: B1
Conditions: with cbl_human CBL

Variant | effect of a mutation on the interaction
G386D | with no effect

Variants of: B1
Conditions: with cblb_human CBLB

Variant | effect of a mutation on the interaction
G386D | with no effect

Variants of: B1
Conditions: with ccnd1_human CCND1, P24385

Variant | effect of a mutation on the interaction
G386D | with no effect

Variants of: B1
Conditions: with ccnd2_human CCND2, P30279

Variant | effect of a mutation on the interaction
G386D | with no effect

Variants of: B1
Conditions: with ccnd3_human CCND3, P30281

Variant | effect of a mutation on the interaction
G386D | with no effect

Variants of: B1
Conditions: with cd44_human CD44, P16070

Variant | effect of a mutation on the interaction
G386D | with no effect

Variants of: B1
Conditions: with cd79b_human CD79B

Variant | effect of a mutation on the interaction
G386D | with no effect

Variants of: B1
Conditions: with cdc27_human CDC27, P30260

Variant | effect of a mutation on the interaction
G386D | with no effect

Variants of: B1
Conditions: with cdk4_human CDK4, P11802

Variant | effect of a mutation on the interaction
G386D | with no effect

Variants of: B1
Conditions: with cdk6_human CDK6, Q00534

Variant | effect of a mutation on the interaction
G386D | with no effect

Variants of: B1
Conditions: with cdn2b_human CDKN2B

Variant | effect of a mutation on the interaction
G386D | with no effect

Variants of: B1
Conditions: with cdn2c_human CDKN2C

Variant | effect of a mutation on the interaction
G386D | with no effect

Variants of: B1
Conditions: with cebpa_human CEBPA

Variant | effect of a mutation on the interaction
G386D | with no effect

Variants of: B1
Conditions: with chd1l_human CHD1L

Variant | effect of a mutation on the interaction
G386D | with no effect

Variants of: B1
Conditions: with chd2_human CHD2, O14647

Variant | effect of a mutation on the interaction
G386D | with no effect

Variants of: B1
Conditions: with ch3l1_human CHI3L1, P36222

Variant | effect of a mutation on the interaction
G386D | with no effect

Variants of: B1
Conditions: with csf1r_human CSF1R

Variant | effect of a mutation on the interaction
G386D | with no effect

Variants of: B1
Conditions: with ctna1_human CTNNA1, P35221

Variant | effect of a mutation on the interaction
G386D | with no effect

Variants of: B1
Conditions: with ctnb1_human CTNNB1, P35222

Variant | effect of a mutation on the interaction
G386D | with no effect

Variants of: B1
Conditions: with cul3_human CUL3, Q13618

Variant | effect of a mutation on the interaction
G386D | with no effect

Variants of: B1
Conditions: with dicer_human DICER1, Q9UPY3

Variant | effect of a mutation on the interaction
G386D | with no effect

Variants of: B1
Conditions: with dll3_human DLL3, Q9NYJ7
Chain of dll3_human DLL3, Q9NYJ7 (Q9NYJ7 whole entry): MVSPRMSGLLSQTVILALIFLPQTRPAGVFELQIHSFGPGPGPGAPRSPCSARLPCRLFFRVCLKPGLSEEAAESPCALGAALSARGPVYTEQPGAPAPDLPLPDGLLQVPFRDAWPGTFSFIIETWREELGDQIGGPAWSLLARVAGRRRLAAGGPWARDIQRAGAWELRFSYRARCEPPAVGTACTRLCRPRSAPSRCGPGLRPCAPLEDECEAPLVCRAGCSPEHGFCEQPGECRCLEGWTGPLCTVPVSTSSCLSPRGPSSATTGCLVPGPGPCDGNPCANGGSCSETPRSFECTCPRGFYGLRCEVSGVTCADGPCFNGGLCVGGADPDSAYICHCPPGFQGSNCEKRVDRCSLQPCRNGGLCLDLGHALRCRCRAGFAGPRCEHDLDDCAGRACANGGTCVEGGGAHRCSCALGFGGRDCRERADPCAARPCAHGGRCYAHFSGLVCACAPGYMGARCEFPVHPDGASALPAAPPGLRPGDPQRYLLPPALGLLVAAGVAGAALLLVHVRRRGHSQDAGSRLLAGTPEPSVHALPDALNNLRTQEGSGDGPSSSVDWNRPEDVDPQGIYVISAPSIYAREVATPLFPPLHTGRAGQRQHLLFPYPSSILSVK

Variant | effect of a mutation on the interaction
G386D | with no effect

Variants of: B1
Conditions: with duox2_human DUOX2, Q9NRD8
Chain of duox2_human DUOX2, Q9NRD8 (Q9NRD8 whole entry): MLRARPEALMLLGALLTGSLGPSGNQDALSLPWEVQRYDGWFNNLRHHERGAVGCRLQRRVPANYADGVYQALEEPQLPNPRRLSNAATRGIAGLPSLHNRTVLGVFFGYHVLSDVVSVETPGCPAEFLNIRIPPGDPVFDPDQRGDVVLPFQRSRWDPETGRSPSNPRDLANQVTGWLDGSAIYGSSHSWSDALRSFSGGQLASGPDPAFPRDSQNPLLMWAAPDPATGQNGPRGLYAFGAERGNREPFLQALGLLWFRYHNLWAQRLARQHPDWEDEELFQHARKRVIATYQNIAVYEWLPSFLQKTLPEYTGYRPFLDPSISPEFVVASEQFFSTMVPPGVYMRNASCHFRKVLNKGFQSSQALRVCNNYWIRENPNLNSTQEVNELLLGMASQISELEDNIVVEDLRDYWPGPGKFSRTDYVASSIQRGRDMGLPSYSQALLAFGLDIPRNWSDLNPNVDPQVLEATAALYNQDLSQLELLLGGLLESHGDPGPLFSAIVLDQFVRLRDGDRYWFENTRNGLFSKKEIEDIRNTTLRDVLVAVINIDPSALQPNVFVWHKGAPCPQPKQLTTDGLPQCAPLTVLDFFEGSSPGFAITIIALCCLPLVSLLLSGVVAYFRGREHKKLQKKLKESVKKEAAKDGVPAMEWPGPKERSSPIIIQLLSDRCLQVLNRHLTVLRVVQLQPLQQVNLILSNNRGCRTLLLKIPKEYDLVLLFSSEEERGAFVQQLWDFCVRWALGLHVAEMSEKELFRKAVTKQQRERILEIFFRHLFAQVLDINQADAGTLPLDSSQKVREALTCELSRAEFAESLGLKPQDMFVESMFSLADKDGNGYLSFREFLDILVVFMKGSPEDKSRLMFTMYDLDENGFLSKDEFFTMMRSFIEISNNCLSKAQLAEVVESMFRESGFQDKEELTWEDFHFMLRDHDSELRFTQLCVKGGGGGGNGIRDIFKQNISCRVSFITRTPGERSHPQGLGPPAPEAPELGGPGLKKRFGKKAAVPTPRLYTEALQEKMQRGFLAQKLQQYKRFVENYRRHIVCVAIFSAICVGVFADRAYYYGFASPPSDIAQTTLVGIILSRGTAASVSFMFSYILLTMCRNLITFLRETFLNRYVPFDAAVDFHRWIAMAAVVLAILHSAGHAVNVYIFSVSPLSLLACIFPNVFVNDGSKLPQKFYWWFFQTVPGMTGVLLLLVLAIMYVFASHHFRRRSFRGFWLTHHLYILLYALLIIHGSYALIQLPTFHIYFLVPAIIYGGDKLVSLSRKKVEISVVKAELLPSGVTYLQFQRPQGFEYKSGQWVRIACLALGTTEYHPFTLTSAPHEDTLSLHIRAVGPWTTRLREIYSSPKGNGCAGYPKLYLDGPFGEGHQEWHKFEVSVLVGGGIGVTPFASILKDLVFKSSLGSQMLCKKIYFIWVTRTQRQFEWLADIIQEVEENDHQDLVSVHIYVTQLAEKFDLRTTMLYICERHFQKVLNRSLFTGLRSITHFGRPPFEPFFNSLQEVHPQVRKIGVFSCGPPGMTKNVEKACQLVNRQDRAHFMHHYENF

Variant | effect of a mutation on the interaction
G386D | with no effect

Variants of: B1
Conditions: with e2f1_human E2F1, Q01094

Variant | effect of a mutation on the interaction
G386D | with no effect

Variants of: B1
Conditions: with e2f2_human E2F2, Q14209

Variant | effect of a mutation on the interaction
G386D | with no effect

Variants of: B1
Conditions: with e2f4_human E2F4, Q16254
Chain of e2f4_human E2F4, Q16254 (Q16254 whole entry): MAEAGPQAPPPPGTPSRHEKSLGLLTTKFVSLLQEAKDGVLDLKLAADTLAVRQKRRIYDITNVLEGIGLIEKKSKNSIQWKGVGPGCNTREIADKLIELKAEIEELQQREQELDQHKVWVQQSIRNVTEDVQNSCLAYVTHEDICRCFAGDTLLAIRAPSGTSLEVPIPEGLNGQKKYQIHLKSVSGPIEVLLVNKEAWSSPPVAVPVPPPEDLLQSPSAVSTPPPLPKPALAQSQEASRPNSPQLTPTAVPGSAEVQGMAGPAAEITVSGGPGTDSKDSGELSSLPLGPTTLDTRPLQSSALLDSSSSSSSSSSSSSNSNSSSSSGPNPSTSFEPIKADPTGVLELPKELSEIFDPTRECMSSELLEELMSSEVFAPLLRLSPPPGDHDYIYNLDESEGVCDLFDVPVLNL

Variant | effect of a mutation on the interaction
G386D | with no effect

Variants of: B1
Conditions: with e2f5_human E2F5, Q15329

Variant | effect of a mutation on the interaction
G386D | with no effect

Variants of: B1
Conditions: with e2f8_human E2F8, A0AVK6

Variant | effect of a mutation on the interaction
G386D | with no effect

Variants of: B1
Conditions: with if4e_human EIF4E

Variant | effect of a mutation on the interaction
G386D | with no effect

Variants of: B1
Conditions: with epha2_human EPHA2, P29317

Variant | effect of a mutation on the interaction
G386D | with no effect

Variants of: B1
Conditions: with epha7_human EPHA7, Q15375

Variant | effect of a mutation on the interaction
G386D | with no effect

Variants of: B1
Conditions: with ephb1_human EPHB1, P54762

Variant | effect of a mutation on the interaction
G386D | with no effect

Variants of: B1
Conditions: with erbb3_human ERBB3, P21860

Variant | effect of a mutation on the interaction
G386D | with no effect

Variants of: B1
Conditions: with erbb4_human ERBB4, Q15303

Variant | effect of a mutation on the interaction
G386D | with no effect

Variants of: B1
Conditions: with esr1_human ESR1, P03372

Variant | effect of a mutation on the interaction
G386D | with no effect
